Tests used:
mouse IL-36R (IL-1Rrp2) = target: T1, mouse IL-36R (IL-1Rrp2) (mouse, UniProt Q9ERS7)
T1 chain: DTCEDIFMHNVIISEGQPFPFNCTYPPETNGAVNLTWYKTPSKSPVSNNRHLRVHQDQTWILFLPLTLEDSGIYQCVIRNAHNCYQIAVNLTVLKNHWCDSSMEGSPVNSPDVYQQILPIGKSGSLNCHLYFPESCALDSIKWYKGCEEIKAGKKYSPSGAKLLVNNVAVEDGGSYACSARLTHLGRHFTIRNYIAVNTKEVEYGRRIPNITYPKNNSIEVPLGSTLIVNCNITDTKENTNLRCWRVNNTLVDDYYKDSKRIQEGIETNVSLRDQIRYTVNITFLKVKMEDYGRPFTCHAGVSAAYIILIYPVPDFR

rat IL-36R = target: T2, rat IL-36R (rat, UniProt Q62929)
T2 chain: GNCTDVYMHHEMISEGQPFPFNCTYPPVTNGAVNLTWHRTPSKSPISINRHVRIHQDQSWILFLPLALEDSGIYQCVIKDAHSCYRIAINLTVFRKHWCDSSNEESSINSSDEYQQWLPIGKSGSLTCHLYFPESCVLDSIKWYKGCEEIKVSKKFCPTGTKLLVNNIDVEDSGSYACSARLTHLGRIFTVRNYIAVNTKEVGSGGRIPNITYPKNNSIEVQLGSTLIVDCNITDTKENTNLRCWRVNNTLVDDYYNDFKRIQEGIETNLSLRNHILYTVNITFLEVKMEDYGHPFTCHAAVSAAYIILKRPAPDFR

B1: HB0034 (antibody, V domains shown)
VH: QVQLVQSGAEVKKPGASVKVSCKASGYTFTSSWMHWAKQAPGQGLEWIGEIHPNSAKTNYNQKFQGRVTMTRDTSISTAYMELSRLRSDDTAVYYCARVDYGKPWFAYWGQGTLVTVSS
VL: QIVLTQSPGTLSLSPGERATLSCRASSSVSSSYLHWYQQKPGQAPRLWIYSTSSRATGIPDRFSGSGSGTDFTLTISRLEPEDFATYYCQQFQSSPLTFGQGTKLEIK
- binding result (mouse IL-36R (IL-1Rrp2)): no binding
- binding result (rat IL-36R): no binding
